“Also recorded” adds a separate entry of the source.
B1: S1D12: anti-tau binding molecule defined by its CDRs; scAb sequence SEQ ID NO: 32 (protein)
scFv: QVQLQESGPSLVKPSQTLSLTCTVSGFSLNNNAVGWVRQAPGKVPESLVGCSSDGTCYYNSALKSRLDITRDTSKNQISLSLSSVTTDDAAVYYCTRGHYSIYGYDYLGTIDYWGPGLLVTVSSEGKSSGASGESKVDDQAVLTQPSSVSGSLGQRVSITCSGSSSNVGGGNSVGWYQHLPGSGLKTIIYDTNSRPSGVPDRFSGSRSGNTATLTINSLQAEDEGDYYCVTGDSTTHDDLVGSGTRLTVLG
modifications: S1D12 amino acid sequence
B2: S1G2: anti-tau binding molecule defined by its CDRs; scAb sequence SEQ ID NO: 81 (protein)
scFv: QVQLQESGPSLVKPSQTLSLTCTVSGFSLTSNSVGWVRQAPGKAPEWVAGIDTDGEEGYNPALNSRLSITRDTSKSQVSLSLSSVTSEDTAVYYCGRSYRADGLAYGYVQAIDYWGPGLLVTVSSEGKSSGASGESKVDDQAVVTQPSSVSGSLGQRVSITCSGSFIGISSVGWFQQLPGSGLRTIIVASDGRPSGVPDRFSMSKSGNTATLTISSLQAEDEADYFCGSSDRTPYTGVFGSGTRLTVLG
modifications: S1G2 amino acid sequence
B3: E1E8: anti-tau clone, SEQ ID NO: 250 (protein)
scFv: QVQLQESGPSLVKPSQTLSLTCTVSGFSLTDWGVAWVRQAPGKALEWLGTMRSGGTTDDNPALKSRLSITRDTSKSQVSLSLSSVTTEDMAMYYCARGYLSGVHYAWGRGLLVTVSSEGKSSGASGESKVDDQAVLTQPSSVSGSLGQSVSITCSGSSSNVGDGRYVSWFQQVPGSAPKLLIYDTTSRASGVPDRFSGSRSGNTATLIITSLQAEDEADYYCASIDSGNNLLFGSGTRLTVLG
modifications: E1E8 amino acid sequence

Assays:
dGA = dGA (Homo sapiens, UniProt P10636); experiment: Biacore X100 SPR binding kinetics of anti-tau scAbs (scAb captured via HuCk), analyte dGA; conditions: lead scAbs; for ka: Table 24; for dissociation rate constant (kd): Table 24, dissociation rate
Sequence of dGA (P10636 614-707): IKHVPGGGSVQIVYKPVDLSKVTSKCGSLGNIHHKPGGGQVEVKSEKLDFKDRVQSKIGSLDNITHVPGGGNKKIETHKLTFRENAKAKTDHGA
Protocol: (§1) Surface plasmon resonance (SPR) is widely regarded as the gold standard for real time measurement of protein-protein interactions such as antibody binding. All SPR experiments were carried out using a Biacore X100 machine and HBS EP+ running buffer (GE Healthcare). A ‘capture’ method was followed for affinity measurements, where an anti-human constant kappa chain (HuCk) antibody was conjugated to the surface of a CM5 sensor chip using an amine coupling kit and scAb molecules were immobilised via their HuCk domain. Amine coupling is a very common approach for immobilising the ligand to the chip surface. The chip surface has a dextran matrix derivatised with carboxyl groups, which after activation with N-hydroxysuccinimide (NHS) and 1-ethyl-3-(3-dimethylaminopropyl) carbodiimide (EDC), form reactive succinimide esters which allows the covalent capturing of the ligand via any available primary amine groups (e.g. Lysine) on the ligand (in this case anti-HuCk antibody). The capture antibody was diluted 1/100 in 10 mM Sodium acetate buffer pH 5.0 and passed over the activated chip surface for a period of at least 420 s. Final ligand immobilisation levels over 12,000 RU were deemed to be satisfactory.
(§2) Following immobilisation, the level of each scAb to be captured was identified using the standard SPR equation with a theoretical RMax of 100 RU. Analyte MW refers to the molecular weight of hT40 or dGA/dGAE molecules, while ligand MW refers to the molecular weight of the scAbs tested. RLis the desired capture level and S refers to the stoichiometric ratio:
(§3) The scAb to be tested was added only to flow cell 2 so that flow cell 1 could act as a control to subtract any interaction with the analyte and the chip surface. Both single and multi-cycle runs were utilised using wizards developed in the Biacore X100 control software which are both accepted methods of kinetic analysis (Karlsson, R., et al. Analyzing a kinetic titration series using affinity biosensors (2006) Analytical Biochemistry 349:136-47). The multi-cycle protocol was as follows-Three start-up cycles composed of an initial capture, to the desired level, of the scAb to be tested was performed followed by a 30 s injection of glycine buffer pH 2.0 after each cycle to regenerate the chip surface. The regeneration step removed any captured scAb whilst leaving the capture antibody intact and able to repeat the capture for the next cycle. Following three start-up cycles increasing concentrations (0.15625 nM-100 nM) of the target to be tested were added to the chip surface after the desired scAb capture. The target was added for a 120 s association period and 420 s dissociation period followed by another regeneration, 30 s injection of glycine buffer pH 2.0 in between each cycle.
The single cycle kinetics protocol was similar and utilised the same level of scAb capture. Three start-up cycles were used followed by 5 increasing concentrations of the analyte (6.25 nM-100 nM) for an association period of 120 s followed by a dissociation period of 420 s for each concentration. In single cycle kinetics the regeneration step was performed only after the final analyte concentration was added. Binding responses were analysed in Biacore X100 evaluation software and data fitted to a 1:1 binding model to obtain kinetic and affinity characterisation.

tau = experiment: Western blot of mouse brain homogenates (WT, L66+/+, L1+/+); conditions: 20 μg brain homogenate protein, 5-month-old WT, L1+/+ mice
Protocol: Protein equivalent to 20 μg from each brain extract was separated using 4-20% bis-tris gels and run in 1×MES buffer. […] A clear band is visible in the lanes containing L66^+/+ samples, but no other bands are detectable (WT or L1^+/+). […] Once again, a band having relative mobility of 65 kDa is visible in the L66 sample with no other reactive bands present.
This band most likely corresponds to endogenous mouse tau which is of a similar size. In the L66^+/+ samples, a second band running at approximately 68 kDa is also detected. The presence of numerous other bands indicates proteolytic truncation of tau within brain homogenates.

core region tau = experiment: S1D12 immunotherapy 6-week repeat-dose mouse study, plasma tau by CA4-S1G2 core-core Simoa assay; format: in vivo
Protocol: A total of 12 wildtype, 12 Line 1 and 12 Line 66 female mice were used in this study—Line 1 and Line 66 are transgenic mouse models of tauopathy (Melis et al., 2015). Animals were 2 months old at the beginning of the study. Mice of each genotype were injected intraperitoneally (i.p.) with either vehicle or S1D12 mAb (30 mg/kg), once per week, for six consecutive weeks.
Seven days post final dose, cardiac puncture blood sampling was performed. mice were anaesthetised using an overdose of sodium pentobarbital (i.p.) and blood was collected via cardiac puncture through a Plastipak syringe pre-rinsed with heparinised saline (10 U/mL) and transferred into a plastic vial containing lithium heparin anticoagulant. Blood samples were centrifuged to obtain plasma at 2,000×g for 5 min at 6° C.
In order to monitor the ‘treatment effect’ of S1D12 mAb, plasma tau of vehicle control and antibody treated L66^+/+ mice were assessed via a core-core homebrew Simoa® assay to investigate changes in core tau pools in these mice.

dGAE aggregates = biological target: T1, dGAE aggregates (Homo sapiens, UniProt P10636); experiment: Sandwich ELISA LoD for SDS Triton X-100 treated dGAE aggregates; format: binding; conditions: label = detection scAb
T1 construct: host or cells: aggregated in house: 100 μM dGAE with DTT, 700 rpm, 37 °C, 24 h
T1 sequence (P10636 614-708): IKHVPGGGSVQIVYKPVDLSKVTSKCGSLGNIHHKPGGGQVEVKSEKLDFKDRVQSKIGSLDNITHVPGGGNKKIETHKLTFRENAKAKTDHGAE
Protocol: For aggregation, 1000 μL 100 μM dGAE+10 μL 10 mM DTT was added to a ‘LoBind’ microfuge tubes and agitated at 700 RPM/37° C. for 24 hours. Resulting sample centrifuged at 17,000×g/4° C. for 60 min and supernatant discarded to remove left over monomer. Pellet resuspended in half the original volume for future experiments and hereafter referred to as ‘aggregates’. 1 μl of aggregates was added to 1 ml of PBS and SDS was added to a final concentration of 1% (w/v). This was left to incubate on lab bench for 1 h with gentle agitation every 15 minutes. In order to neutralise the SDS effect on ELISA, Triton X-100 added to a final concentration of 3% (v/v) and mixed gently by pipetting to prevent any bubble formation. 200 μl added of this mix was to the first well of an ELISA plate coated with 1 μg/ml S1D12 mAb and blocked with 2% MPBS. Similarly aggregates treated with only SDS or Triton X-100, untreated aggregates, dGAE monomers treated with only SDS or SDS+Titon X-100 were also added to designated wells as controls. All samples were then double diluted across the plate in final volumes of 100 μl. The final column was left with no protein to act as a blank. This was allowed to stand at room temperature for 1 hour followed by the addition of detection scAb-S1G2 at 10 μg/ml. Anti-HuCk HRP labelled secondary antibody was added as described previously and ELISA data generated was represented using the graph below. In addition, limits of detection (LoD) of various core binding antibody pairing for SDS Triton X-100 treated dGAE aggregates were calculated using the above describe ELISA method and substituting capture mAbs and detection scAbs as shown in Table 30.

tau protein = experiment: Capture ELISA of transgenic mouse brain lysates; conditions: S1D12 mAb capture; label = detection scAb; WT, L1, L66+/- and L66+/+
Protocol: Mouse brain lysates were prepared from wildtype, Line 1, Line 66+/+ and Line 66+/− (Melis et al., 2015, all surplus from Charles River, part of study R0144). All animals were female, 7-8 months old except Line 66+/+ which were 5 months old. […] The L1 cDNA construct (FIG. 23) contains human tau cDNA coding for amino acid residues 296-390 with a signal sequence and related sequences in a murine Thy-1 expression cassette. For brain lysate preparation, half brains were sectioned into four and the individual sections were homogenised in 400 μl of ice cold RIPA buffer (Cell signalling Technology) containing protease and phosphatase inhibitors. Total protein concentrations for individual samples were established by BCA-assay and each sample was subsequently diluted to 1 mg/ml for future experiments.
For capture ELISA, 100 μL S1D12 capture mAb was used to coat a nunc 96 well Maxisorp plate at 1 μg/ml and incubated for 1 hour at 37° C. Plate was washed as previously and then blocked for 1 hour at 37° C. in 2% MPBS. Brain homogenate samples (50 ng total protein) from each mouse type were added to the first wells and double diluted across the plate in PBS. These samples were left to incubate at RT for 1 hour. Various detection scAbs encompassing epitopes of interest were then added to the plate at 1 μg/ml and incubated for 1 h at RT. Secondary antibody used was anti-HuCk HRP and the assays were developed as described previously. Using S1D12 mAb capture and two separate scAb detectors, S-1G2 (FIG. 24A) and C-B7 (FIG. 24B), it was possible to differentiate between L1 and L66 samples and the wild type.

dGAE = dGAE (Homo sapiens, UniProt P10636); experiment: Biacore X100 SPR binding kinetics of anti-tau scAbs (scAb captured via HuCk), analyte dGAE; conditions: lead scAbs
Sequence of dGAE (P10636 614-708): as above
Protocol: as §1, §2
as §3, with “Following three start-up cycles increasing concentrations (0.15625 nM-100 nM) of the target to be tested were added to the chip surface after the desired scAb capture. The target was added for a 120 s association period and 420 s dissociation period followed by another regeneration, 30 s injection of glycine buffer pH 2.0 in between each cycle.” left out
The single cycle kinetics protocol was similar and utilised the same level of scAb capture. […] Binding responses were analysed in Biacore X100 evaluation software and data fitted to a 1:1 binding model to obtain kinetic and affinity characterisation.

Molecule | ka (dGA) [M⁻¹ s⁻¹] | dissociation rate constant (kd) (dGA) [s⁻¹] | Western blot reactivity (tau) | plasma tau, L66+/+ mice with S1D12 treatment (core region tau; 30 mg/kg i.p. once per week for six weeks, CA4-S1G2 Simoa) | increase of core region tau in plasma vs vehicle group, L1 (core region tau; CA4-S1G2 pairing, n=5 or 6) | increase of core region tau in plasma vs vehicle group, L66 (core region tau; CA4-S1G2 pairing, n=5 or 6) | increase of core region tau in plasma vs vehicle group, wild-type (core region tau; CA4-S1G2 pairing, n=5 or 6) | LoD, 423 mAb capture, +SDS Triton dGAE agg. (dGAE aggregates) [ng/mL] | LoD, S1D12 mAb capture, +SDS Triton dGAE agg. (dGAE aggregates) | LoD, direct immobilisation of dGAE aggregates, +SDS Triton dGAE agg. (dGAE aggregates) [ng/mL] | detection of tau in mouse brain homogenate (tau protein) | ka (dGAE; Table 24) [M⁻¹ s⁻¹] | dissociation rate constant (koff) (dGAE; Table 24, dissociation rate) [s⁻¹]
B1 | 1.21e+06 | 0.000418 | A band is detected in each sample (WT, L66^+/+ and L1^+/+) | 3.52 (0.20) ng/ml | more than 100 fold | more than a threefold increase | less than a two-fold increase |  |  |  |  |  | 
B2 | 783000 | 0.0003499 | A band is detected in each sample (WT, L66^+/+ and L1^+/+); also recorded: able to detect the pathologic 10-kDa tau fragment |  |  |  |  | 30 | approximately 2 ng/ml | 16 | tau protein was detected in 50 μg of total brain protein in all four different sample types |  | 
B3 |  |  |  |  |  |  |  |  |  |  |  | 153500 | 0.0014
